From the DeepSol protein solubility set

Test: soluble on expression in E. coli; label from the status in PepcDB or PDB records

Row | Sequence | soluble on expression in E. coli
1 | MAHHHHHHMSLPPRGPSSPPAKCPQECVASSCVSLPITPPCIARRVLPLFPPPGWHMYDAYRNCFQYRPDVQRKLVKAVQRERHLRHLAAPHAGDAATSSAEVSAAVLRKEVMEMDSTCCCCALDAAHLFATPEDMPTPPLPLSRCELHEVLLALSPRWQSYPWRLCFDTASDGFSLSSLYRCMEAVDAKQSQVKTVAFGLFFVHSREDAALTNAQTASPVDSLSASSTSPSYALWPPTAGAPHSFCEAHHSSSRRYGAAHGALQHSVLGCFTPEVPCLGRHAANIYFGSTDTFVFRLDQLSCAPSRGAWMATDVEKKQSSQRAQQQEQQQQHGKAAEPHTCAPATSTRAVGAAPAYGYAKLALADDDIAGVPVPMPSRVTIEHAGDSKHAVDKSMVHSSPLLPPSEVPPLLNPSPLRAAVVSSSNAAAMSSVHGAPDIVVPSPRGRWHRLLRPVQPARVVPHAPLLEKFTWCGNMHNRKFIVCNPHFFAIGGGQSGAALYVDEALQYGTSSTWCETFNAPCLFGPRMGSADVSSVPSLVQSYMSGNDSPSGGPARPTSGLPHVEFAISRVVWFSVTEDKRTLRMMSAADASLPSAEAHRCGCGRFSCASASHTTTLDPMSTEKSTAPSPPPASTFLHQCDLLPFAAPM | not soluble
2 | GSYHADPSLVSFLTGLGCPNCIEYFTSQGLQSIYHLQNLTIEDLGALKIPEQYRMTIWRGLQDLKQGHDYSTAQQLLRSS | soluble
3 | AKLGAVYTEGGFVEGVNKKLGLLGDSVDIFKGIPFAAPTKALENPQPHPGWQGTLKAKNFKKRCLQATITQDSTYGDEDCLYLNIWVPQGRKQVSRDLPVMIWIYGGAFLMGSGHGANFLNNYLYDGEEIATRGNVIVVTFNYRVGPLGFLSTGDANLPGNYGLRDQHMAIAWVKRNIAAFGGDPDNITLFGESAGGASVSLQTLSPYNKGLIRRAISQSGVALSPWVIQKNPLFWAKKVAEKVGCPVGDAARMAQCLKVTDPRALTLAYKVPLAGLEYPMLHYVGFVPVIDGDFIPDDPINLYANAADIDYIAGTNNMDGHIFASIDMPAINKGNKKVTEEDFYKLVSEFTITKGLRGAKTTFDVYTESWAQDPSQENKKKTVVDFETDVLFLVPTEIALAQHRANAKSAKTYAYLFSHPSRMPVYPKWVGADHADDIQYVFGKPFATPTGYRPQDRTVSKAMIAYWTNFAKTGDPNMGDSAVPTHWEPYTTENSGYLEITKKMGSSSMKRSLRTNFLRYWTLTYLALPTVT | soluble
4 | MTDSPGGVAPASPVEDASDASLGQPEEGAPCQVVLQGAELNGILQAFAPLRTSLLDSLLVMGDRGILIHNTIFGEQVFLPLEHSQFSRYRWRGPTAAFLSLVDQKRSLLSVFRANQYPDLRRVELAITGQAPFRTLVQRIWTTTSDGEAVELASETLMKRELTSFVVLVPQGTPDVQLRLTRPQLTKVLNATGADSATPTTFELGVNGKFSVFTTSTCVTFAAREEGVSSSTSTQVQILSNALTKAGQAAANAKTVYGENTHRTFSVVVDDCSMRAVLRRLQVGGGTLKFFLTTPVPSLCVTATGPNAVSAVFLLKPQK | soluble
5 | MTDALEQSVLALEGTVSVLKDSVESLKCANEPSTNLASTMLQTKRVFRLVPEYDVERSKLDLIEEVEPLVRTLGDKLRKSMGRMQRELDTLQQTYELNDLRLKKNISMDDDDALNSPDMGQEYEGRDADDVVMMASSTNEELEELKKLKEKKKQLENKLEILKQK | soluble
6 | MDDLASQSFPEPERAIMKATYQVLCEYGYADLTIQQIADEYGKTTTAVHYHCDTKNKLLTAFLDYLLEELADSVHNIRTTNPENRLKFLLDELLVKSKNEPVLSIALLEMQSQTPYKEPFRERFKQMAVVNRQTELDFTVSETA | not soluble
7 | MANSLCFFSSPPTFCFQSPSKNPKPSHFFSTNDNTSSLVQKRELLQTSRSQSFEVKAANNNPQGTKPNSLVCANCEGEGCVACSQCKGGGVNLIDHFNGQFKAGALCWLCRGKKEVLCGDCNGAGFIGGFLSTFDE | soluble
8 | ITLNSEPKCINNIKSGQYERYDTNNTELNRVLGGGLVKGSITLISGAPGIGKSTLLLQICQDIALKYGKVLYVSGEESEHQIKMRGDRLGVTSANIYILAETNMESIERHVENIKPAFVIIDSIQTLYKDQITSAPGSVSQVRECANDIMRIAKTDNIPFFIVAHVTKQGELAGPRVLEHIVDTVLTFEGQRTEEFRILRTVKNRFGTTSEIGVFEMKEEGL | not soluble
9 | MPKIPITLITGFLGSGKTSFLSEYLNQTDHQGVALIINEIGQAALDQRILSVQYCGEKMLYLNAGCVCCNKRLDLVESLKATLNNYEWHGEILRRIIIETTGLANPAPILWTILSDTFLGVHFEIQSVVACVDALNAREHLTNNEAKEQIVFADSVLLTKTDLQNDSAALTKLKERIQALNPSAEIFDKRAIDYESLFSRKNRARNFMPRMPKDSHSQGFETLSINFEGTMEWSAFGIWLSLLLHQYGTQILRIKGIIDIGSGFLVSINGVMHVIYPPKHILKDQNGSNLVFIMRHLEREKILNSLKGFKDFLGIKGFETQLEHHHHHH | soluble
10 | MSKNLTITHESTFNGNKVYIDKEGLVVEYLEGIESVLENALEQYARLFIVRVDLNLPTDFRGDDSAVMTRFFRSLKSQVAAYRRRSARLNRKPYRETTIRYVWAKECDTSTSSHYHVALIFDRNIFRSLGDFGEYQQSLANRIRNAWKRSVEAMYSGKEKPAIHFSKQGQYHLLRNSEEFGEVFQSVFYRLSYLAKRRTKHFGKRMNNFGHSHK | not soluble
11 | SVCKGVSGNPAKGEVFLYKHVNFQGDSWKVTGNVYDFRSVSGLNDVVSSVKVGPNTKAFIFKDDRFNGNFIRLEESSQVTDLTTRNLNDAISSMIVATFESA | soluble
12 | MGHHHHHHSHMLKIIRAGMYTTVQDGGRHGFRQSGISHCGALDMPALRIANLLVGNDANAPALEITLGQLTVEFETDGWFALTGAGCEARLDDNAVWTGWRLPMKAGQRLTLKRPQHGMRSYLAVAGGIDVPPVMGSCSTDLKVGIGGLEGRLLKDGDRLPIGKSKRDSMEAQGVKQLLWGNRIRALPGPEYHEFDRASQDAFWRSPWQLSSQSNRMGYRLQGQILKRTTDRELLSHGLLPGVVQVPHNGQPIVLMNDAQTTGGYPRIACIIEADMYHLAQIPLGQPIHFVQCSLEEALKARQDQQRYFEQLAWRLHNEN | not soluble
13 | MGSDKIHHHHHHMSRVNELVGTLFTGGRKPDDLYGRVFVVSAFGGITNLLLEHKKTGEPGVYARFADAESDHGWHEALSRVGDEMRKAHEAVLENAGDVAQADAFVSERIEGARNCLIDLQRLCSYGHFRLAEHMLQIRELLSGLGEAHSAYVTALLLQRAGVNARFVDLSGWRDEGDVTLEERISSALNDVDPATEMPIVTGYAQCAEGLMREFDRGYSEVTFSCLAALTGASEAIIHKEFHLSSADPKLVGEGVAQKLGHTNYDVADQMSNMGMEAIHPKAAKTLRQADVPLRVTNAFEPEDPGTLIDDKPADQPAVEMITGLDIIALELFEQDMVGVKGYDAAILEVLTRHDVRIVSKTSNANTITHYLDTSLTVLKRVEKDLAKIYPNADISARLLSMASAIGRDLKGLSVLTRGLQAIADVGLASLGASQGPRNVDVQFIVEREDLKPVISALHKVLVEGRPAKQEKPIKAAA | not soluble
14 | MDKVYLTWWQVDRAIFALAEKLREYKPDVIIGVARGGLIPAVRLSHILGDIPLKVIDVKFYKGIDERGEKPVITIPIHGDLKDKRVVIVDDVSDTGKTLEVVIEEVKKLGAKEIKIACLAMKPWTSVVPDYYVFRTEKWIVFPWEEFPVIEKE | soluble
15 | SLVRNGRIAFAGPESDLPDDLSTADETTDCGGRWITPALIDCHTHLVFGGNRAMEFEMRLNGATYEEIAKAGGGIVSSVRDTRALSDEVLVAQALPRLDTLLSEGVSTIEIKSGYGLDIETELKMLRVARRLETLRPVRIVTSYLAAHATPADYKGRNADYITDVVLPGLEKAHAEGLADAVDGFCEGIAFSVKEIDRVFAAAQQRGLPVKLHAEQLSNLGGAELAASYNALSADHLEYLDETGAKALAKAGTVAVLLPGAFYALREKQLPPVQALRDAGAEIALATDCNPGTSPLTSLLLTMNMGATLFRMTVEECLTATTRNAAKALGLLAETGTLEAGKSADFAIWDIERPAELVYRIGFNPLHARIFKGQKVSP | not soluble
16 | MGKFFFFGFVGLLLSWGALYYRYSDEKNTSARKYRFDPPPALVGNLFINAGLEKAEHILDGKIVGPESMVVDDEAIYVSVNDAKVLKIVDGRVVSKASYSEKSKFFPDCGHFDTEPECGRPLGIRRLVAGKPKFVVCDAYLGVYIVDFTDEQNPISTQILDSKVPIDGLKPRFLNDLDVISEDELIISDSSTRHDRRHFMAAILEHQADGRIFHLKISTKSVKVLADKLYFPNGIQLTEDKKSVIFAECSMARIKKLTIASKKVEMFAANLPGLPDNIRSSGRGTYWVGLTATRSATHPSLLDRLGSLPGIRQFLVDIVPGPYWKPLLGLFKNPHSIIIELDSVGKIVRSLHDVTGKHVGDASQVTEHNGHLYIGSFADHYIAKVKL | not soluble
17 | VKNILLLDSEGKRVAVKYYSDDWPTNAAKLSFEKYVFSKTSKTNARTEAEITLLDSNIIVYKFAQDLHFFVTGGENENELILASVLQGFFDAVALLLRSNVEKMEALENLDLIFLCLDEMVDQGVVL | not soluble
18 | MNWRAASAPPRSSPGLTSTCSRAAHWRDRGGAAAHAVLANVPQGRTLRDDAADLGWKPNHKFKGKLILTAPDAMPVDLNGVTITIAGPLQDELQALQDMHDQWLRQRKADPTRPPASAMLAAFVDKSVPNLSSIVLLAECGGKTMLLTGDARGDKIIEGLETTGKLAKDETLHVDILKVPHHGSDNNMETSFFERVTADHYVFSGNGDYGNPERATLQMLLDARGVAEDFTIHLTYPIEEIDAGREADWVKQQAKEAGRAKPPKGGVRPDWSAEEQGLVAFFANNPELAAHLIDLLDKAVVLEHHHHHH | not soluble
19 | MGSDKIHHHHHHMKIGVFSVLFYDKNFEDMLDYVAESGLDMIEVGTGGNPGDKFCKLDELLENEDKRQAFMKSITDRGLQISGFSCHNNPISPDPIEAKEADETLRKTIRLANLLDVPVVNTFSGIAGSDDTAKKPNWPVTPWPTAYSEIYDYQWNEKLIPYWQDLAEFAKEQDVKIAIELHAGFLVHTPYTMLKLREATNEYIGANLDPSHLWWQGIDPIAAIRILGQANAIHHFHAKDTYINQENVNMYGLTDMQPYGNVATRAWTFRTVGYGHSPYVWADIISQLIINGYDYVLSIEHEDPIMSVEEGFQKACQTLKSVNIYDKPADMWWA | not soluble
20 | MSSVAPSVRLFFALWPQEAVRKQLARLARRIADQCAGRCVRPENLHLTLAFIGEVDSSVVPILRQAGSAIHRTSFDLLLDKLHCWGKGSIIAAGVSQPCGELTVLVQDLRNQLSAAGVRYDTVKFVPHVTLVRNAKREPEQKHFPETIPPVAWAADRWSLVQSRPTPYGSAYQSFADWALASQDFDEHHRA | not soluble
21 | MGSDKIHHHHHHMNDENIQSSNYQPFPSFDDWKQIEVSLLDVIESSRHFSDLKDSTDRSALDAALERAKRAAAVDTNAIEGIFQTDRGFTHTVATQVGAWEQQMAMKGKHVKPAFDDTLEGFEYVLDAVTGRTPISQQWIRNLHAVILRSQESHEVFTAVGVQNQALQKGEYKTQPNSPQRSDGSVHAYAPVEDTPAEMARFISELESKEFLAAEKVIQAAYAHYAFVCIHPFADGNGRVARALASVFLYKDPGVPLVIYQDQRRDYIHALEAADKNNPLLLIRFFAERVTDTINSIIVDLTTPIAGKSGSAKLSDALRPTRVLPELHDAAHRLQESLFTEIRSRLDEEGKRNGLEFLLQRIFIGSPFNLPEGYNAFPDSYCLTLAFNSNSPKQIFHPLSIVIAARDGKRASSDLVAATSIGYNFHAYGREVEPVVTESFRERVKIYADGIVDHFLTELAKKFQQN | not soluble
